The target in assay [1] is SARS-CoV-2 full length Spike protein, wild type, expressed on CHO cells (SARS-CoV-2, UniProt P0DTC2 14-1273).
Assay [2] addresses T1, SARS-CoV full length Spike protein, wild type, expressed on CHO cells (SARS-CoV, UniProt P59594 14-1255).
In assay [3] the target is T1, SARS-CoV full length Spike protein, …. The assay is described as follows: flow cytometry, live cell assay on transfected CHO cells. In general terms: Flow cytometry measures light scatter and fluorescence of single cells or particles in a stream.
The target in a further assay is SARS-CoV Spike protein (SARS-CoV, UniProt P59594 14-1190).
The target in assay [4] is SARS-CoV-2 full length Spike protein, wild type (SARS-CoV-2, UniProt P0DTC2 14-1208).

B1: anti-SARS-CoV-2 antibody 1015 (antibody, V domains shown)
VH: EVQLVESGGGLVQPGGSLRLSCAASGFTFSSYWMHWVRQAPGKGLVWVSHINSDGSSTSYADSVKGRFTISRDNAKNTLYLQMNSLRAEDTAVYYCARGLRYFDLDVWGQGTTVTVSS
VL: QSVLTQPPSVSEAPRQRVTISCSGSSSNIGNNAVNWYQQLPGKAPKLLIFYDDLLPSGVSDRFSGSKSGTSASLAISGLQSEDEADYYCAAWDDSLNGGVFGGGTKLTVLG
As for B1, the “median fluorescence intensity, fold over isotype control” value (“median fluorescence intensity, fold” for short) in assay [1] is 30.5 fold over isotype; in assay [2] it was 0.89 fold over isotype. The binding result in assay [3] is reported as “no binding”.

B2: anti-coronavirus antibody 563 (antibody, V domains shown)
VH: QVQLVESGGGVVQPGRSLRLSCAASGFTFSSYAMHWVRQAPGKGLEWVAVISDDGSNKYYADSVKGRFTISRDNSKNTLYLQMNSLRAEDTAVYYCARDIVATIRRLFDYWGQGTLVTVSS
VL: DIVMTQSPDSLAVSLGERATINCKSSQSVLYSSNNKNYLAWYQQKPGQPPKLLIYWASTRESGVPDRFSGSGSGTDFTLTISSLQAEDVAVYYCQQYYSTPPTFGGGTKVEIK
For B2, the “binding signal (fold over isotype control)” value with SARS-CoV Spike protein was found to be 35.4 fold over isotype control.

B3: anti-coronavirus antibody 560 (antibody, V domains shown)
VH: EVQLVESGGGLVQPGGSLRLSCAASGFTISSNYMSWVRQAPGKGLEWVSVIYSGGSTYYADSVKGRFTISRDNSKNTLYLQMNSLRAEDTAVYYCAREEGEWEKDYYGMDVWGQGTTVTVSS
VL: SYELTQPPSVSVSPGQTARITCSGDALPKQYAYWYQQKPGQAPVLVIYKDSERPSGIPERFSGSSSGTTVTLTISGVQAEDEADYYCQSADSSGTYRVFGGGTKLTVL
For the molecule B3, in the assay with SARS-CoV Spike protein, the “binding signal (fold over isotype control)” value worked out at 1.14 fold over isotype control.

B4: anti-SARS-CoV-2 antibody 1444 (antibody, V domains shown)
VH: QVQLVQSGAEVKKPGASVKVSCKASGYTFTAYYMHWVRQAPGQGLEWMGWINPNSDDTNYAQKFQGRVTMTRDTSISTAYMELSRLRSDDTAVYYCAREEGVFTIGDRYFDLWGRGTLVSVSS
VL: QTVVTQEPSFSVSPGGTVTLTCGLSSGSVSTSYYPSWYQQTPGQAPRTLIYNTNTRSSGVPDRFSGSILGNKAALTITGAQADDESDYYCVLYMGSGIWVFGGGTKLTVLG
With B4, the “median fluorescence intensity, fold” value in assay [1] came out at 48.7 fold over isotype; in assay [2], 0.77 fold over isotype. In assay [3], the binding result is “no binding”.

B5: anti-SARS-CoV-2 antibody 851 (antibody, V domains shown)
VH: QITLKESGPTLVKPTQTLTLTCTFSGFSLSTNGVGMGWIRQPPGKALEWLALIYWDDDQFYSPSLKSRLTITRDTSKNQVVLTMTNMDPVDTATYYCAQAFYESFGFYSWGQGTLVTVSS
VL: NFMLTQPHSVSESPGKTVIISCTRSIGSIASNYVQWYQQRPGSAPTIVVFEDNERPSGVPDRFSGSIDRSSNSASLTISGLKTEDEADYYCQSYDGSSELVFGGGTKLTVLG
Turning to B5, the “median fluorescence intensity, fold” value in assay [1] came out at 60 fold over isotype; in assay [2], 0.62 fold over isotype. Moreover, the binding result in assay [3] is reported as “no binding”.

B6: anti-coronavirus antibody 544 (antibody, V domains shown)
VH: QVQLQQWGAGLLKPSETLSLTCAVYGGSFSGYYWSWIRQPPGKGLEWIGEINHSGSTNYNPSLKSRVTISVDTSKNQFSLKLSSVTAADTAVYYCARGFKWFGELLFGAQGTLVTVSS
VL: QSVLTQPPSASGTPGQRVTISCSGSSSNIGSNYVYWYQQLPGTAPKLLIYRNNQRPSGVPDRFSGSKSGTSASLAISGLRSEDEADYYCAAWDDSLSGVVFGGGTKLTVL
In the case of B6, the “binding signal (fold over isotype control)” value with SARS-CoV Spike protein is 1.05 fold over isotype control.

B7: anti-coronavirus antibody 571 (antibody, V domains shown)
VH: EVQLVESGGGLVQPGGSLRLSCAASGFTFSTYWMTWVRQAPGKGLEWVANIKHDGSGKYHVDSVKGRFTISRDNAKNSLYLQMNSLRAEDTAVYYCTRDEGGWYDYWGQGTLVTVSS
VL: QSALTQPASVSGSPGQSITISCTGTSSDVGSYNPVSWYQQHPGKAPKVMIYEGSKRPSGVSNRFSGSKSGNTASLTISGLQAEDEADYYCCSYARSSTFVVFGGGTKLTVL
As to B7, in the assay with SARS-CoV Spike protein, the “binding signal (fold over isotype control)” value came out at 1.28 fold over isotype control.

B8: anti-coronavirus antibody 556 (antibody, V domains shown)
VH: QVQLVESGGGVVQPGRSLRLSCAASGFTFSSYAMHWVRQAPGKGLEWVAVISYDGSDKYYADSVKGRVTISRDNSKNTLYLQMNSLRVEDTAVFYCAKDDCSGGVCFPDYWGQGTLVTVSS
VL: QSALTQPASVSGSPGQSITISCTGTSSDVGGYNYVSWYQQHPGKAPKLMIYEVSIRPSGVSNRFSGSKSGNTASLTISGLQAEDEAAYYCSSYTSSSTLVFGGGTKLTVL
For the molecule B8, the “binding signal (fold over isotype control)” value with SARS-CoV Spike protein amounted to 1.09 fold over isotype control.

B9: antibody 556 (antibody, V domains shown)
VH: QVQLVESGGGVVQPGRSLRLSCAASGFTFSSYAMHWVRQAPGKGLEWVAVISYDGSDKYYADSVKGRVTISRDNSKNTLYLQMNSLRVEDTAVFYCAKDDCSGGVCFPDYWGQGTLVTVSS
VL: QSALTQPASVSGSPGQSITISCTGTSSDVGGYNYVSWYQQHPGKAPKLMIYEVSIRPSGVSNRFSGSKSGNTASLTISGLQAEDEAAYYCSSYTSSSTLVFGGGTKLTVL
B9: the “median fluorescence intensity, fold” value in assay [4] stood at 625 fold over isotype.

B10: anti-coronavirus antibody 546 (antibody, V domains shown)
VH: QVQLVESGGGVVQPGRSLRLSCAASGFTFSSYGMHWVRQAPGKGLEWVAVIWYDGSNKYYADSVKGRFTISRDNSKNTLYLQMNSLRAEDTAVYYCARNCGGDCVAGDGFDYWGQGTLVTVSS
VL: DIQMTQSPSSLSASVGDRVTITCRASQSISSYLNWYQQKPGKAPNLLIYAASSLQSGVPSRFSGSGSGTDFTLTISSLQPEDFATYYCQQSYSALTWTFGQGTKVEIK
For B10, the “binding signal (fold over isotype control)” value in the assay with SARS-CoV Spike protein was 1.18 fold over isotype control.

B11: anti-coronavirus antibody 548 (antibody, V domains shown)
VH: QVQLVESGGGVVQPGRSLRLSCAASGFTFSSYAMHWVRQAPGKGLEWVAVISYDGSNKYYADSVKGRFTISRDNSKNTLYLQMNNLRAEDTAVYYCAKSGSGSYLSAFDIWGQGTMVTVSS
VL: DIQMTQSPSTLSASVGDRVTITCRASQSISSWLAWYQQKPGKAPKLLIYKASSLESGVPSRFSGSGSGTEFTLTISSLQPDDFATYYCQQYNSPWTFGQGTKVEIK
On to B11, for which the “binding signal (fold over isotype control)” value in the assay with SARS-CoV Spike protein was 18.1 fold over isotype control.

B12: anti-SARS-CoV-2 antibody 896 (antibody, V domains shown)
VH: EVQLVESGGGVVQPGGSLRLSCAASGFTFDDYAMHWVRQVPGKGLEWVSLISGDGGSTYYADSVKGRFTISRDNSKNSLYVQMNSLRTEDTALYYCVKDRGGSGWDLNHYYYGMDVWGQGTTVTVSS
VL: DIQLTQSPSFLSASVGDRVTVTCRASQGISSYLAWYQQKPGKAPKLLIYAAYTLQSGVPSRFSGSGSETEFTLTISSLQPEDFATYYCQQVKSYPLTFGGGTKVEIKR
In the case of B12, the “median fluorescence intensity, fold” value in assay [1] worked out at 70.3 fold over isotype; in assay [2], 0.69 fold over isotype. The binding result in assay [3] is “no binding”.

B13: anti-SARS-CoV-2 antibody 1075 (antibody, V domains shown)
VH: QVQLVQSGAEVKKPGASVKVSCKVSGYTLIELSMHWVRQAPGKGLEWMGGFDPEDGETIYAQKFQGRVTMTEDTSTDTAYMELSSLRSEDTAVYYCATEWAYYGSGSYLGYWGQGTLVTVSS
VL: EIVMTQSPATLSVSPGERATLSCRASQSVSSNLAWFQQKPGQAPRLLIYGASTRVTVIPARFSGSGSGTEFTLTISSLQSEDFAVYYCQQYNNWPRTFGQGTKVEIKR
B13: the “median fluorescence intensity, fold” value in assay [1] is 78.7 fold over isotype; in assay [2], 0.86 fold over isotype. Moreover, the binding result in assay [3] was “no binding”.

B14: anti-SARS-CoV-2 antibody 1495 (antibody, V domains shown)
VH: QVQLVESGGGVVQPGRSLRLSCTASGFTFSSYAMHWVRQAPGKGLEWVAVISYDGNNKYYGDSVKGRFTISRDNSKNTLYLQMNSLRAEDTAVYYCAKGADTPHYSGYHFLSVGYYFYGMDVWGQGTTVTVSS
VL: DIQMTQSPSSLSASVGDRVTITCRASQSISYYLNWYQQKPGKAPQLLIYAASSLQSGVPSRFSGSRSGTDFTLTISSLQPEDFATYYCQQSYSTPFTFGPGTKVDIKR
B14: the entries for the “median fluorescence intensity, fold” value in assay [1] and in assay [2] were 57.3 fold over isotype and 0.72 fold over isotype, respectively. The binding result in assay [3] is reported as “no binding”.

B15: anti-coronavirus antibody 566 (antibody, V domains shown)
VH: QVQLVQSGAEVKKPGASVKVSCKASGYTFTSYAMHWVRQAPGQRLEWMGWINAGNGNTKYSQKFQGRVTITRDTSASTAYMELSSLRSEDTAVYYCARDLGVAVTLHPADFDYWGQGTLVTVSS
VL: QSVLTQPPSVSGAPGQRVTISCTGSSSNIGAGYDVHWYQQLPGTAPKLLIYDNSNRPSGVPDRFSGSKSGTSASLAITGLQAEDEADYYCQSYDSSLSAVVFGGGTKLTVL
As to B15, in the assay with SARS-CoV Spike protein, the “binding signal (fold over isotype control)” value was 0.97 fold over isotype control.

B16: anti-SARS-CoV-2 antibody 1404 (antibody, V domains shown)
VH: QITLKESGPTLVKPTQTLTLTCTFSGFSLSISGVGVGWLRQPPGKALEWLALIYWDDDKRYSPSLKSRLTISKDTSKNQVVLKMTNIDPVDTATYYCAHHSISTIFDHWGQGTLVTVSS
VL: QSALTQPASVSGSPGQSITISCTATSSDVGDYNYVSWYQQHPGKAPKLMIFEVSDRPSGISNRFSGSKSGNTASLTISGLQAEDEADYYCSSYTTSSAVFGGGTKLTVLG
With B16, the “median fluorescence intensity, fold” value was 71.2 fold over isotype in assay [1] and 0.86 fold over isotype in assay [2]. For the same molecule, in assay [3], the binding result was “no binding”.

B17: anti-SARS-CoV-2 antibody 894 (antibody, V domains shown)
VH: QVQLVQSGAEVKKPGASVKVSCKVSGYTLPELSIHWVRQAPGKGLEWMGGFDPENAETIYTQKFQGRLTMTEDTSTDTAYMELSSLRSEDTAMYYCATSFVLMPAALGDYSYYYGMDVWGQGTTVTVSS
VL: not shown
Regarding B17, the “median fluorescence intensity, fold” value came out at 77.7 fold over isotype in assay [1] and 0.67 fold over isotype in assay [2]. Further, the binding result in assay [3] was “no binding”.

B18: anti-coronavirus antibody 545 (antibody, V domains shown)
VH: QVQLVQSGSELKKPGASVKVSCKASGYTFTSYAMNWVRQAPGQGLEWMGWINTNTGNPTYAQGFTGRFVFSLDTSVSTAYLQISVLKAEDTGVYYCARDHELPNSSSWFGHFEYWGQGTLVTVSS
VL: SYELTQPPSVSVSPGQTARITCSGDALPKQYAYWYQQKAGQAPVLVIYKDSERRSGIPERFSGSSSGTTVTLTISGVQAEDEADYYCQSADSSGTSVVFGGGTKLTVL
In the case of B18, the “binding signal (fold over isotype control)” value in the assay with SARS-CoV Spike protein was found to be 1.13 fold over isotype control.

B19: anti-SARS-CoV-2 antibody 1538 (antibody, V domains shown)
VH: EVQLLESGGGLVQPGGSLRLSCAASGFTFSSYAMSWVRQAPGKGLEWVSGISDSGGSTYYADYVKGRFTISRDNSKDTLYLQMNSLRAEDTAVYYCAKDRGNEYALTHYYYYAMDVWGQGTTVTVSS
VL: DIQMTQSPSSLSASVGDRVTITCRASQSISSYLNWYQQKPGKAPKLLIYAAYSLQSGVPSRFSGGGSGTDFTLTISSLQPEDFATYFCQQSYSTPITFGQGTRLEIKR
B19: the “median fluorescence intensity, fold” value turned out to be 67.5 fold over isotype in assay [1] and 0.75 fold over isotype in assay [2]. Moreover, the binding result in assay [3] was “no binding”.
